This note sets out measurements from paper PMC4091690, “A Broadly Conserved G-Protein-Coupled Receptor Kinase Phosphorylation Mechanism Controls Drosophila Smoothened Activity” (PLoS Genetics, 2014).

The target in experiment [1] is Smo^SD.c12D (Smo^SD with Gprk2 phosphorylation clusters 1 and 2 changed to Asp), C-terminally tagged with GFP10 or RLucII (UniProt P91682). Nature of the experiment: BRET. The note with it: S2 cells, Luc + GFP10 tagged pair, read off a plot.
Experiment [2] has as its target T1, Smo^core (Drosophila Smoothened amino acids 1-663), C-terminally tagged with GFP10 (Drosophila, UniProt P91682 32-663).
T1 construct: signal peptide in the construct; Smoothened (Smo), Drosophila melanogaster, amino acids 1-663, truncated just after the third Gprk2 phosphorylation cluster; also called Smo^core-GFP10; source: S2-R+ cells, transfected (pRmHa3.puro, induced with CuSO4), in intact cells; not shown: GFP10, C-terminal, kept
T1 sequence (looked up): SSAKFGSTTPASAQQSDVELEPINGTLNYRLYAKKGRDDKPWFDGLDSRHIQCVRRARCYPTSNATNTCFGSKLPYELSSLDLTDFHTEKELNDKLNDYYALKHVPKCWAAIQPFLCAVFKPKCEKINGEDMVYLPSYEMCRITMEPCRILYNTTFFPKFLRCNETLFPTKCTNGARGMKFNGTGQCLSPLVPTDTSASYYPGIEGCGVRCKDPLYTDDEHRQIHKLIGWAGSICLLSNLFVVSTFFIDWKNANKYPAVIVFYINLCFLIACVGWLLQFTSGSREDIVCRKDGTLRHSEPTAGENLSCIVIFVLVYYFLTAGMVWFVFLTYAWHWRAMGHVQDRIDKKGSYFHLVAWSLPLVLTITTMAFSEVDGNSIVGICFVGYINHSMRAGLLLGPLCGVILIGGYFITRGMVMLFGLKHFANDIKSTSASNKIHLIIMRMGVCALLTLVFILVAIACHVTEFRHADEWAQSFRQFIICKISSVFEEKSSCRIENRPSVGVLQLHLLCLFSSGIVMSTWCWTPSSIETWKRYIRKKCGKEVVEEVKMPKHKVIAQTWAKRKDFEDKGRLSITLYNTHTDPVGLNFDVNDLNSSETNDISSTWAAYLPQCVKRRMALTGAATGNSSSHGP
As to the kind of experiment: FRET or BRET; BRET in intact S2-R+ cells between C-terminally GFP10-tagged truncated Smo variants (300 ng) and Cos2-RLucII (75 ng), myc-Fu (75 ng) co-transfected; cells treated with control (beta-gal), gprk2 or smo 3'UTR dsRNA, without or with myc-Gprk2; net BRET. The note with it: partners not purified.

Consider “Smo^SD (PKA- and CKI-phosphomimetic form of Drosophila Smoothened), C-terminally tagged with GFP10 or Renilla luciferase II (from UniProt P91682) S604D; T606D; T610D; T612D; S626D; S627D; T629D; S633D; S634D; T635D”, for which the response in experiment [1] (dsRNA targeting β-gal (control), parent: est. 100) is 170; in experiment [1] (gprk2 dsRNA, parent: est. 67), 160.

B1: Costal-2 (Cos2), C-terminally tagged with Renilla luciferase II (natural protein, Drosophila, UniProt O16844 1-1201, looked up)
chain: MEIPIQVAVRIFPHRELKDLLRSFGPTEPKKDAQAVDEGADSKDSEAQVPAAEKDNPSISETDPNGNAEQDSAADSKTIPDANGNDSGQKDYPDSAYCVQAIPISASALGLPSALPGGDPMDSIAAGLIQVGPHTVPVTHALPSSSSQEQVYHQTVFPLITLFLEGFDASVVTYGQRGQGKSYTLYGNVQDPTLTDSTEGVVQLCVRDIFSHISLHPERTYAINVGFVEICGGDVCDLLGMGNIHCTNVDAVFHWLQVGLSARQSLPAHTLFTLTLEQQWVSKEGLLQHRLSTASFSDLCGTERCGDQPPGRPLDAGLCMLEQVISTLTDPGLMYGVNGNIPYGQTTLTTLLKDSFGGRAQTLVILCVSPLEEHLPETLGNLQFAFKVQCVRNFVIMNTYSDDNTMIVQPAEPVPESNSSAGPLSQAGPGDNFGLQFAASQWSKLVTNAEGLFSKLIDSKLITEVEKEQIEEWLFLKQECEECLSSTEAMRQQKQLVPILEAEEPEDVNSEAANSESPNSDNENDTDNESHRPDLDDKIESLMEEFRDKTDALILEKHAEYLSKHPKAVMQSQDREIEAQPPEENGDDRKVSIGSRRRSVQPGASLSTAELAMLNRVASQQPPPPIDPESVVDPLESSSGEGIRQAALAAAAATAPIEQLQKKLRKLVAEIEGKQRQLREIEETIQVKQNIIAELVKNSDTRSHAKQRFHKKRAKLEAECDKAKKQLGKALVQGRDQSEIERWTTIIGHLERRLEDLSSMKHIAGESGQKVKKLQQSVGESRKQADDLQKKLRKECKLRCQMEAELAKLRESRETGKELVKAQGSPEQQGRQLKAVQARITHLNHILREKSDNLEEQPGPEQQETLRHEIRNLRGTRDLLLEERCHLDRKLKRDKVLTQKEERKLLECDEAIEAIDAAIEFKNEMITGHRSIDTSDRIQREKGEQMLMARLNRLSTEEMRTLLYKYFTKVIDLRDSSRKLELQLVQLERERDAWEWKERVLSNAVRQARLEGERNAVLLQRQHEMKLTLMLRHMAEETSASSASYGERALAPACVAPPVQASSDFDYDHFYKGGGNPSKALIKAPKPMPTGSALDKYKDKEQRSGRNIFAKFHVLTRYASAAAAGSSGSTAEESTALIESTTTATATTTSTTTTGAVGKVKDKALVSFRPEQLKRLMPAPTATKVTRQKNKIIIQDASRRN
notes: Costal-2 (Cos2), kinesin-like protein, Drosophila; also called Cos2-Luc; Cos2-RLucII; source: S2-R+ cells, transfected (pRmHa3.puro, induced with CuSO4), in intact cells; not shown: RLucII, C-terminal, kept
For the molecule B1, in experiment [2], the “fold increase of net BRET on Gprk2 overexpression against control cells” value is above 2.2 fold.
